{"source": "patent US10350264B2", "about": "“Compositions and methods for modulating NCOA4-mediated autophagic targeting of ferritin” (Dana-Farber Cancer Institute, Inc., priority 2014, dated 2019)", "molecules": {"B1": {"name": "N-terminal MYC-NCOA4: NCOA4 N-terminal fragment, amino acids 1-245 of SEQ ID NO: 4 (protein)", "chain": "MNTFQDQSGSSSNREPLLRCSDARRDLELAIGGVLRAEQQIKDNLREVKAQIHSCISRHLECLRSREVWLYEQVDLIYQLKEETLQQQAQQLYSLLGQFNCLTHQLECTQNKDLANQVSVCLERLGSLTLKPEDSTVLLFEADTITLRQTITTFGSLKTIQIPEHLMAHASSANIGPFLEKRGCISMPEQKSASGIVAVPFSEWLLGSKPASGYQAPYIPSTDPQDWLTQKQTLENSQTSSRACN", "modifications": "N-terminal MYC tag; Homo sapien"}, "B2": {"name": "aa 235-560: fragment of NCOA4 SEQ ID NO: 4 (protein)", "chain": "ENSQTSSRACNFFNNVGGNLKGLENWLLKSEKSSYQKCNSHSTTSSFSIEMEKVGDQELPDQDEMDLSDWLVTPQESHKLRKPENGSRETSEKFKLLFQSYNVNDWLVKTDSCTNCQGNQPKGVEIENLGNLKCLNDHLEAKKPLSTPSMVTEDWLVQNHQDPCKVEEVCRANEPCTSFAECVCDENCEKEALYKWLLKKEGKDKNGMPVEPKPEPEKHKDSLNMWLCPRKEVIEQTKAPKAMTPSRIADSFQVIKNSPLSEWLIRPPYKEGSPKEVPGTEDRAGKQKFKSPMNTSWCSFNTADWVLPGKKMGNLSQLSSGEDKWL", "modifications": "Homo sapien"}, "B3": {"name": "aa 383-560: fragment of NCOA4 SEQ ID NO: 4 (protein)", "chain": "SMVTEDWLVQNHQDPCKVEEVCRANEPCTSFAECVCDENCEKEALYKWLLKKEGKDKNGMPVEPKPEPEKHKDSLNMWLCPRKEVIEQTKAPKAMTPSRIADSFQVIKNSPLSEWLIRPPYKEGSPKEVPGTEDRAGKQKFKSPMNTSWCSFNTADWVLPGKKMGNLSQLSSGEDKWL", "modifications": "Homo sapien"}, "B4": {"name": "NCOAB: naturally occurring transcript variant of NCOA4 consisting of amino acids 1-238 and 555-614 (protein)", "chain": "MNTFQDQSGSSSNREPLLRCSDARRDLELAIGGVLRAEQQIKDNLREVKAQIHSCISRHLECLRSREVWLYEQVDLIYQLKEETLQQQAQQLYSLLGQFNCLTHQLECTQNKDLANQVSVCLERLGSLTLKPEDSTVLLFEADTITLRQTITTFGSLKTIQIPEHLMAHASSANIGPFLEKRGCISMPEQKSASGIVAVPFSEWLLGSKPASGYQAPYIPSTDPQDWLTQKQTLENSQGEDKWLLRKKAQEVLLNSPLQEEHNFPPDHYGLPAVCDLFACMQLKVDKEKWLYRTPLQM", "modifications": "left off: small tags and cut ends"}}, "key": {"[1]": {"target": "T1, apo-ferritin purified from equine spleen (Equus caballus, UniProt Q8MIP0)", "T1 construct": "apo-ferritin purified from equine spleen; purchased Sigma F4503; host or cells: equine spleen", "T1 sequence (Q8MIP0 whole entry, the tested form may be a part)": "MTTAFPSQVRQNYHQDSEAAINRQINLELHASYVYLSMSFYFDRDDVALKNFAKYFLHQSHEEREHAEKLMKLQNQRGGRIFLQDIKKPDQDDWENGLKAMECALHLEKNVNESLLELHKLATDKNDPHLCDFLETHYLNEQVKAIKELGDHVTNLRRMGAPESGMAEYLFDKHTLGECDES", "T1 sequence (P02791 2-175 partner limits assumed)": "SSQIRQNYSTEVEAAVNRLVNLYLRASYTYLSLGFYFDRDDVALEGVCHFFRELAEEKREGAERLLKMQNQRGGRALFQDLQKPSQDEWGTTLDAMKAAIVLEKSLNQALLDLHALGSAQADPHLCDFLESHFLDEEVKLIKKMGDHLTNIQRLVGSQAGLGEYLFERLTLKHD", "experiment": "GST pull-down assay of ferritin using GST-NCOA4 fragments", "type": "binding", "conditions": "anti-FTH1 immunoblot, FIGS. 7, 8, 11", "excerpt": "GST-tagged NCOA4 constructs were also made to probe the interactions of C-terminal portions of NCOA4 with ferritin. NCOA4-truncation constructs were produced using Gateway cloning (Invitrogen, Life Technologies, catalog #11789-013 and 11791-019) into a pDEST60 N-terminal GST fusion plasmid (GST-NCOA4) from EMD Millipore (Gateway Nova pET-60-DEST, product #71851-3) and transformed in E. coli BL21 (DE3) cells (New England Biosciences, C2527I).\nNCOA4 truncation constructs were designed based on NCBI reference sequence: NP_001138735.1 (SEQ ID NO: 4). In particular, fragments of SEQ ID NO: 4 consisting of amino acids (aa) 1-245, aa 235-614, aa 235-560, aa 235-401, aa 383-560, aa 545-614, aa 383-522, aa 510-560, aa 383-436, aa 436-485, aa 475-522, aa 475-500, aa 480-500, aa 480-504, aa 485-509, aa 490-514, aa 495-522 were designed. Protein expression in the DE3 cells was induced with 1 mM isopropyl-beta-D-thiogalactopyranoside (IPTG) (Sigma, I6758-10 G) for 3 hours at 37° C. Cells were collected by centrifugation, re-suspended in 25 mM Tris-HCl (pH 7.4), 10% (w/v) sucrose and lysed with a single freeze-thaw cycle followed by sonication. After centrifugation, a GST pull-down assay was performed.\nIn the GST pull-down assay, lysates were incubated with 10 μl of a 50% (v/v) slurry of glutathione Sepharose 4B beads (GE Healthcare Lifesciences, 17-0756-01) for 30 minutes at 4° C. Beads were washed thoroughly with 150 mM NaCl, 20 mM Tris (pH 7.4), 2 mM dithiothreitol (DTT), 0.5% (w/v) Nonidet P-40, leaving 50-100 μg of GST-fusion protein bound to the beads. Beads were then mixed with 0.5-2 μg of apo-ferritin purified from equine spleen (Sigma F4503) or recombinant human FTH1 or FTL produced in Rosetta E. coli (EMD Millipore, 70953-3). The assay mix was incubated for 2 hours at 4° C., and beads were washed four times with 1 ml wash buffer. Proteins were eluted with SDS sample buffer and analyzed by 4-20% gradient SDS-PAGE and immunoblotting with anti-FTH1 antibody (as above) or anti-FLAG antibody (Sigma, F1804-200 UG). Pounceau stain was used to visualize GST-NCOA4 bands. (Pounceau, Sigma, P7170-1 L, protocol as per product manual)."}, "[2]": {"target": "T2, ferritin purified from horse spleen (mixture of FTH1 and FTL subunits) (Equus caballus, UniProt Q8MIP0)", "T2 construct": "ferritin purified from horse spleen; purchased Sigma A3641-100 mg; host or cells: horse spleen", "T2 sequence (Q8MIP0 whole entry)": "as the sequence (Q8MIP0 whole entry, the tested form may be a part) above", "T2 sequence (P02791 2-175 partner limits assumed)": "as the sequence (P02791 2-175 partner limits assumed) above", "experiment": "anti-MYC immunoprecipitation of in vitro translated MYC-NCOA4 constructs incubated with ferritin", "type": "binding", "conditions": "anti-MYC IP, anti-FTH1 immunoblot, FIG. 5", "method": "To probe the interaction between ferritin and NCOA4, initial binding assays using MYC-tagged NCOA4 full-length and truncation constructs produced using an in vitro translation (“IVT”) system were conducted. MYC-NCOA4 fragments were cloned using PCR into a modified T7 cell-free expression vector (pT7CFE1-NMyc, #88863, Thermo Scientific). 1-Step Human Coupled IVT Kit—DNA from Thermo Scientific (product #88881) was used to produce MYC-tagged NCOA4 constructs as described in the product manual. Apoferritin (Sigma, A3641-100 mg) was added in a pull-down assay using anti-c-Myc Agarose Affinity Gel antibody produced in rabbit (Sigma, A7470-1 ML). Affinity purification reactions were washed thoroughly with 150 mM NaCl, 20 mM Tris (pH 7.4), and 2 mM dithiothreitol. Proteins were eluted with SDS sample buffer and analyzed by 4-20% gradient SDS-PAGE and immunoblotting with anti-FTH1 antibody (Cell Signaling 3998; Western blot 1:1,000) or anti-MYC antibody (Santa Cruz Sc-40; western blot 1:1,000).\nThe full-length, N-terminal (amino acids (aa) 1-245 of SEQ ID NO: 4) and C-terminal (aa 235-614 of SEQ ID NO:4) MYC-NCOA4 were incubated with ferritin purified from horse spleen (Apoferritin (Sigma, A3641-100 mg), consisting of a mixture of FTH1 and FTL subunits) and anti-MYC immunoprecipitation was performed followed by immunoblotting as described above."}, "8988T cells": {"test_system": "8988T cells", "experiment": "NCOA4 protein levels while blocking autophagic flux (immunoblot)", "type": "cell-based, human", "conditions": "CQ or BAF 8 hours, FIG. 2(c)"}, "[3]": {"target": "T3, HERC2-FLAG fragment (F3, HERC2 amino acids 1700-2700) (Homo sapiens, UniProt O95714)", "T3 construct": "HERC2-FLAG fragment (F3, HERC2 amino acids 1700-2700) was produced as described in Bekker-Jensen et al; expressed in transfected cells; host or cells: 293T cells (transient transfection, lysate used)", "T3 sequence (O95714 1700-2700)": "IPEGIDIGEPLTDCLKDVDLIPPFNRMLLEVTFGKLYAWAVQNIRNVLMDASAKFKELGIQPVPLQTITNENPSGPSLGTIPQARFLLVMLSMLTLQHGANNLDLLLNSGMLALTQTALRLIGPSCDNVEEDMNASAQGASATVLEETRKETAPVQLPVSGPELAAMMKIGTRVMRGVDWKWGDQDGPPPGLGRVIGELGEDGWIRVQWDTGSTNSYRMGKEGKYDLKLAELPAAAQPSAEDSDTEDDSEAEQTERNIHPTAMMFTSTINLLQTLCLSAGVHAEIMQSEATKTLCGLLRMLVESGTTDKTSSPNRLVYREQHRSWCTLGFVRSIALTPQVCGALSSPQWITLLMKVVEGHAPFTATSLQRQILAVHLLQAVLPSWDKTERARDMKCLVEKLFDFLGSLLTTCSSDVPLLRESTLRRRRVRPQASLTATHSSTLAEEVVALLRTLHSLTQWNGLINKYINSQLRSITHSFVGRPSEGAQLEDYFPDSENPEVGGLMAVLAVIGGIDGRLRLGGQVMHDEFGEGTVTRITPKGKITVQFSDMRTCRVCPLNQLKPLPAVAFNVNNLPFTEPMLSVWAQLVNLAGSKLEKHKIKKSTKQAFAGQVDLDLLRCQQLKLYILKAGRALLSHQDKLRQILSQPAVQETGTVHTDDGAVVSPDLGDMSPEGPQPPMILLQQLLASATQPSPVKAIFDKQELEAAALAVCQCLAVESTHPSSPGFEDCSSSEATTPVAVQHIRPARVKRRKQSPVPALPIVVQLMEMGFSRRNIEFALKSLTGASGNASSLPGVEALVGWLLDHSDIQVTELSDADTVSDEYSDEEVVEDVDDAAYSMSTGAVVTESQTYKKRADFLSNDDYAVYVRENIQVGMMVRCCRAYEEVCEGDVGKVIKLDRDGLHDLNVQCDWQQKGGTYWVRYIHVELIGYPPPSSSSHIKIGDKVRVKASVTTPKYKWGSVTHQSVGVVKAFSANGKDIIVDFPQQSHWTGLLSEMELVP", "experiment": "GST pull-down assay of HERC2-FLAG Fragment 3 using GST-NCOA4 fragments", "type": "binding", "conditions": "293T lysate expressing HERC2-FLAG F3, anti-FLAG immunoblot; FIG. 12", "method": "To map the interaction of NCOA-4 with HERC2, the GST-NCOA4 truncation constructs described above were also tested in a GST pull-down assay with HERC2-FLAG expressing 293T cell line. HERC2-FLAG fragment (F3, HERC2 amino acids 1700-2700) was produced as described in Bekker-Jensen et al., Nature Cell Biology (2010) 12; 80-86. The HERC2-FLAG F3 was transiently transfected into 293T cells using standard transfection procedures using PEI (Polysciences, #23966-2).\nLysates were obtained, as above, and incubated with 10 μl of a 50% (v/v) slurry of glutathione Sepharose 4B beads for 30 minutes at 4° C. Beads were washed thoroughly with 150 mM NaCl, 20 mM Tris (pH 7.4), 2 mM DTT, 0.5% (w/v) Nonidet P-40, leaving 50-100 μg of GST-fusion protein bound to the beads. Beads were then mixed with 300 μg of lysate from a HERC2-FLAG expressing 293T cell line, as above. The assay mix was incubated for 2 hours at 4° C., and beads were washed four times with 1 ml wash buffer. Proteins were eluted with SDS sample buffer and analyzed by 4-20% gradient SDS-PAGE and immunoblotting with anti-HERC2 antibody or anti-FLAG antibody, as above. Coomassie stain was used to visualize GST-NCOA4 bands as above."}}, "note": "Ends that are not written are not given here."}
{"molecule": "SFQVIKNSPLSEWLIRPPYKEGSPK (Homo sapien) [aa 485-509]", "values": [{"measurement": "binding of GST-NCOA4 fragment to ferritin", "setting": "[1]", "value": "bound to ferritin"}]}
{"molecule": "aa 1-614: full-length human NCOA4 (NP_001138735.1), in vitro translated", "values": [{"measurement": "association of MYC-NCOA4 construct with ferritin", "setting": "[2]", "value": "associated with ferritin"}, {"measurement": "association of MYC-NCOA4 construct with ferritin", "setting": "[2]; listed as Full-length NCOA4", "value": "bind to ferritin"}]}
{"molecule": "CO/C1=C\\C(C)=C\\[C@@H](C)[C@@H](O)[C@@H](C)C/C(C)=C/C=C/[C@H](OC)[C@@H]([C@@H](C)[C@@H](O)[C@H](C)[C@@]2(O)C[C@@H](O)[C@H](C)[C@@H](C(C)C)O2)OC1=O", "note": "[Bafilomycin A1 (BAF), Bafilomycin A1]", "values": [{"measurement": "NCOA4 protein levels", "setting": "8988T cells", "value": "markedly increased"}]}
{"molecule": "aa 555-614: printed as C-terminal MYC-NCOA4; probably only the C-terminal part of NCOA4B ({MYC tag}-GEDKWLLRKKAQEVLLNSPLQEEHNFPPDHYGLPAVCDLFACMQLKVDKEKWLYRTPLQM; cysteine pairing not given here)", "values": [{"measurement": "association of MYC-NCOA4 construct with ferritin", "setting": "[2]", "value": "associated with ferritin"}]}
{"molecule": "SMVTEDWLVQNHQDPCKVEEVCRANEPCTSFAECVCDENCEKEALYKWLLKKEG (Homo sapien) [aa 383-436]", "values": [{"measurement": "binding of GST-NCOA4 fragment to HERC2-FLAG", "setting": "[3]", "value": "bound to HERC2-FLAG"}]}
{"molecule": "B1", "values": [{"measurement": "association of MYC-NCOA4 construct with ferritin", "setting": "[2]", "value": "did not associate with ferritin"}]}
{"molecule": "B2", "values": [{"measurement": "binding of GST-NCOA4 fragment to ferritin", "setting": "[1]", "value": "bound to ferritin"}]}
{"molecule": "B3", "values": [{"measurement": "binding of GST-NCOA4 fragment to ferritin", "setting": "[1]", "value": "bound to ferritin"}, {"measurement": "binding of GST-NCOA4 fragment to HERC2-FLAG", "setting": "[3]", "value": "binds to HERC2 fragment"}]}
{"molecule": "B4", "values": [{"measurement": "association of MYC-NCOA4 construct with ferritin", "setting": "[2]", "value": "did not bind ferritin"}]}
